The results in this text go back to PMC3381513.

Read-outs that look alike come from different tables or passages of the source.

Data set [1] concerns the target T1, CUGBP1 RRM1/2 (human, UniProt Q92879 14-187). As to the kind of experiment: filter binding.
Data set [2] addresses T1, CUGBP1 RRM1/2. As to the kind of experiment: filter binding. The source holds these as a separate data set.
Data set [3] addresses T1, CUGBP1 RRM1/2. As to the kind of experiment: filter binding. This is another data set of the same source.
For another data set, the target named is CUGBP1 RRM1 (ITC) (human, UniProt Q92879 16-99). Put plainly: ITC.
For another data set, the target named is CUGBP1 RRM2 (ITC) (human, UniProt Q92879 109-187). Put plainly: ITC.
The target of data set [4] is T1, CUGBP1 RRM1/2. Put plainly: crystal structure.
Data set [5] addresses T1, CUGBP1 RRM1/2. As to the kind of experiment: EMSA.

T1 sequence (Q92879 14-187): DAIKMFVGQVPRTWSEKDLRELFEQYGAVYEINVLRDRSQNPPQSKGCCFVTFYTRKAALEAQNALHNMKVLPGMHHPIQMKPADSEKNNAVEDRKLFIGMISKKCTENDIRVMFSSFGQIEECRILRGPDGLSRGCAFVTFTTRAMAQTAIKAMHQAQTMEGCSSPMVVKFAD
Sequence of CUGBP1 RRM2 (ITC) (Q92879 109-187): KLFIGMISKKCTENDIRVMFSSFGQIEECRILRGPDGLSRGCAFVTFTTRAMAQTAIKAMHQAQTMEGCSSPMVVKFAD
Sequence of CUGBP1 RRM1 (ITC) (Q92879 16-99): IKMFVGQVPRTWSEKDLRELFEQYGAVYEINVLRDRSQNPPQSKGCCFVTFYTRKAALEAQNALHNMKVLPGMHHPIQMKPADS

As to GUUGUUUUUAUU (ssRNA) [G4A10], in the data set with CUGBP1 RRM1/2 [1], the binding signal was 2.5 fold reduction in binding vs N2.
GUUCUUUUUCUU (ssRNA) [C4C10]: the binding result with CUGBP1 RRM1/2 [2] is given as “no binding”.
On the same count and under the same terms, to GUUAUUUUUAUU (ssRNA) [A4A10] belongs “no binding”.
On to GUUAUUUUUGUU (ssRNA) [A4G10], for which the binding signal with CUGBP1 RRM1/2 [1] was 4.4 fold reduction in binding vs N2.
Turning to GUUUUUUUUUUU (ssRNA) [U4U10], the binding result with CUGBP1 RRM1/2 [2] was “no binding”.
Turning to GUUGCUUUUGCU (ssRNA) [C5C11], the binding signal with CUGBP1 RRM1/2 [3] is ~5 fold loss in affinity vs N2.
Take UUGUU (ssRNA) [UUGUU 5-nt]: the Kd with CUGBP1 RRM1 (ITC) turned out to be 29 µM; with CUGBP1 RRM2 (ITC) it was 45 µM.
As to GUUGUUUUUGUU (ssRNA, U2 = 5-bromouridine) [BrU2 sequence 2], in the data set with CUGBP1 RRM1/2 [4], the binding result was “binds”.
On the same count and under the same terms, to GUUGUUUUUGUU (ssRNA, U8 = 5-bromouridine) [BrU8 sequence 2] belongs “binds”.
On to UGUGUGUUGUGUG (ssRNA) [sequence 3, 13-mer], for which the binding result in the data set with CUGBP1 RRM1/2 [5] is listed as “binds”.
